Measured values: the supplement of paper PMC10126150
± gives the standard deviation of the averaged measurements.

tested on: ATP; assay: switch fluorescence ratio, 500 uM ATP over buffer (Cy3 cluster intensity, sum of 5 cycles each) (fold (ratio)); higher = stronger signal-on switching upon ATP binding; sequences stand for … in TCGTCGGCAGCGTCAGATGTGTATAAGAGACAGTTTTTTTTTTTTTTTTTTTTTTTTT…TC; details: aptamer strand: ATP DNA aptamer (quencher-CACCTGGGGGAGTATTGCGGAGGAAGG + anchor), 100 nM annealed; ATP concentration: 500 uM
Method in brief: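 Between each of five buffer/ATP cycles, the flow-cell was stripped with NaOH and re-annealed. Each cycle imaged Cy3-labelled switching-strand clusters, annealed to 100 nM quencher-labelled ATP aptamer on a modified Illumina MiSeq flow-cell, first in selection buffer and then after 15 min with 500 uM ATP at 22 °C. The fluorescence ratio is summed target-cycle over summed buffer-cycle Cy3 intensity per cluster, averaged per switch-domain sequence, with clusters outside 100-1000 RFU excluded.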
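Further: ATP exposure 15 min at 22 °C before imaging.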

| Sequence | switch fluorescence ratio |
| --- | --- |
| TCTTACAATT | 0.971 ± 0.036 |
| TCTTAGATGA | 0.9765 ± 0.003 |
| TCTTATATTT | 0.9977 ± 0.0021 |
| TCTTATGGAA | 1.04 ± 0.047 |
| TCTTATTTGG | 1.01 ± 0.05 |
| TCTTCTAA | 0.9972 ± 0.0047 |
| TCTTGAACGT | 0.978 ± 0.018 |
| TCTTGATTAT | 0.9795 ± 0.0085 |
| TCTTGGAGCT | 1.01 ± 0.019 |
| TCTTGGCGCC | 0.97579 ± 0.00051 |
| TCTTGGGGG | 1.05 ± 0.012 |
| TCTTGGGGGA | 0.996 ± 0.031 |
| TCTTGGTCGT | 0.9677 ± 0.0051 |
| TCTTGTAATC | 1.07 ± 0.055 |
| TCTTGTATTC | 0.9938 ± 0.0094 |
| TCTTTACCGA | 1.02 ± 0.036 |
| TCTTTACGGT | 1.04 ± 0.045 |
| TCTTTACTAC | 1.08 ± 0.081 |
| TCTTTATAAA | 1.02 ± 0.038 |
| TCTTTCCTTC | 1.04 ± 0.12 |
| TCTTTCTTTT | 1.03 ± 0.027 |
| TCTTTGCAGC | 1.025 ± 0.0041 |
| TCTTTGCCGT | 0.982 ± 0.021 |
| TCTTTGGTTT | 1.17 ± 0.25 |
| TCTTTTAGGC | 1 ± 0.036 |

| Sequence | switch fluorescence ratio |
| --- | --- |
| TCTTTTCGTT | 1 ± 0.011 |
| TCTTTTGGAT | 0.994 ± 0.019 |
| TCTTTTTCCT | 1.045 ± 0.0054 |
| TCTTTTTCTT | 1.01 ± 0.033 |
| TCTTTTTGCA | 1.03 ± 0.014 |
| TCTTTTTGGC | 1.01 ± 0.034 |
| TGAAAAAAAG | 0.973 ± 0.04 |
| TGAAAAACAC | 1.12 ± 0.17 |
| TGAAAATACC | 1.011 ± 0.01 |
| TGAAAATGCG | 1.01 ± 0.057 |
| TGAAAATTAG | 0.9688 ± 0.0049 |
| TGAAAATTCA | 1.05 ± 0.077 |
| TGAAAATTCC | 1.12 ± 0.073 |
| TGAAACAGGT | 1.001 ± 0.0032 |
| TGAAACGGAA | 1.15 ± 0.079 |
| TGAAAGTGCT | 0.973 ± 0.02 |
| TGAAATAGGG | 1.0312 ± 0.00097 |
| TGAAATATCA | 1.0208 ± 0.00019 |
| TGAAATCCGA | 1 ± 0.027 |
| TGAAATTTAA | 1 ± 0.0065 |
| TGAAATTTAG | 1.01 ± 0.047 |
| TGAAATTTG | 1.01 ± 0.03 |
| TGAACAAGAT | 1.01 ± 0.022 |
| TGAACAGGGG | 0.9869 ± 0.0078 |
| TGAACGAGGG | 1.01 ± 0.022 |

| Sequence | switch fluorescence ratio |
| --- | --- |
| TGAACGGATC | 1.03 ± 0.008 |
| TGAACGTCCA | 1.09 ± 0.015 |
| TGAACGTTTT | 1.04 ± 0.029 |
| TGAACTAGTA | 0.9828 ± 0.0046 |
| TGAAGATGGG | 1 ± 0.019 |
| TGAAGATTTA | 1.03 ± 0.017 |
| TGAAGCAGGG | 1.13 ± 0.018 |
| TGAAGCATTT | 1.17 ± 0.14 |
| TGAAGGAGTG | 0.955 ± 0.038 |
| TGAAGGATTT | 1.01 ± 0.034 |
| TGAAGGGGCC | 2.74 ± 2.5 |
| TGAAGGGGGA | 0.995 ± 0.041 |
| TGAAGTGAAT | 1.01 ± 0.011 |
| TGAAGTTGG | 1.01 ± 0.019 |
| TGAATAATCT | 1.055 ± 0.004 |
| TGAATAGGGC | 0.9882 ± 0.0097 |
| TGAATATTAA | 0.985 ± 0.025 |
| TGAATGAATA | 1.027 ± 0.0085 |
| TGAATGAATT | 0.997 ± 0.022 |
| TGAATGATCG | 1.07 ± 0.032 |
| TGAATGGAAT | 1.04 ± 0.047 |
| TGAATTAAGT | 1.029 ± 0.003 |
| TGAATTAGAA | 0.968 ± 0.018 |
| TGAATTTGTT | 0.995 ± 0.038 |
| TGAATTTTAA | 0.995 ± 0.042 |

| Sequence | switch fluorescence ratio |
| --- | --- |
| TGACAACAGC | 1.049 ± 0.0091 |
| TGACAACCGG | 1.05 ± 0.021 |
| TGACAGTAAC | 1.25 ± 0.25 |
| TGACATCTA | 1.07 ± 0.057 |
| TGACCCGGGT | 1.018 ± 0.0072 |
| TGACCGAGAA | 1.06 ± 0.028 |
| TGACGCCGAA | 1.07 ± 0.019 |
| TGACGGCGGA | 1.02 ± 0.023 |
| TGACGGGAAG | 0.9862 ± 0.0012 |
| TGACGGGGAT | 1.25 ± 0.33 |
| TGACGGGTAC | 1.87 ± 0.087 |
| TGACGTCTGG | 1.015 ± 0.0071 |
| TGACGTGCGC | 1.143 ± 0.0093 |
| TGACGTTTTG | 0.9792 ± 0.0046 |
| TGACTACGCG | 1.18 ± 0.02 |
| TGACTATGCT | 0.98 ± 0.02 |
| TGACTGGACG | 1 ± 0.028 |
| TGACTGGGCG | 1.0063 ± 0.00065 |
| TGACTGGGGT | 1.02 ± 0.068 |
| TGACTGTGTG | 0.984 ± 0.017 |
| TGACTGTTTC | 1.01 ± 0.024 |
| TGACTTTTCG | 0.995 ± 0.032 |
| TGAGAAAGAG | 2.15 ± 2 |
| TGAGAAAGGA | 0.99 ± 0.028 |
| TGAGAAGCGG | 0.97 ± 0.039 |
